Experimental data reported in patent US20240165260A1, “CONJUGATES OF ANTIBODY AND FUNCTIONAL SUBSTANCE OR SALTS THEREOF, AND COMPOUNDS USED IN PRODUCTION OF THE SAME OR SALTS THEREOF” (priority 2021, published 2024).

How the values were obtained:
[1] = Evaluation of aggregation ratio by size exclusion chromatography (SEC-HPLC); type: physicochemical; conditions: UV 280 nm
Description: SEC-HPLC analysis was performed according to a previous report (Chemistry Select, 2020, 5, 8435-8439, which is incorporated herein by reference in its entirety). Measurement was performed using the following conditions.
Measurement system: 1260 HPLC system (manufactured by Agilent)
Column: AdvanceBio SEC 300 Å, 2.7 μm, 4.6 mm×150 mm, manufactured by Agilent Technologies
Eluent: 100 mM sodium dihydrogen phosphate/sodium hydrogen phosphate, aqueous solution of 250 mM sodium chloride (pH 6.8), 10′% v/v isopropanol

cathepsin B = cathepsin B (Homo sapiens, UniProt P07858); assay: Cathepsin B cleavability test of ADC mimics (released fluorescent molecules, HPLC/fluorescence); type: biochemical; conditions: 1 mg/mL ADC mimic, MES buffer pH 5.0, 37° C., six hours
Description: Cleave abilities for various ADC mimics by cathepsin B were evaluated by analyzing the amount of fluorescent molecules released from the ADC mimics as described below.
A cathepsin B cleavability test was performed as follows according to a previous report (Nature Communications 2018, 9, 2512, which is incorporated herein by reference in its entirety). An ADC mimic was added to 180 μL of a MES buffer (10 mM MES, 40 μM DTT, pH 5.0) so as to have a concentration of 1 mg/mL, and then 30 μL of the solution was poured into each of six Eppendorf tubes. To each of three of the six samples, 100 μL of acetonitrile was immediately added at 0° C. The mixture was stirred by vortex, and then centrifuged to obtain a precipitate. The resulting supernatant solution was collected and subjected to HPLC analysis. The remaining three samples were incubated at 37° C. for six hours. To each of the samples, 100 μL of acetonitrile was added. The mixture was stirred by vortex, and then centrifuged to obtain a precipitate. The resulting supernatant solution was collected and subjected to HPLC analysis.
For the measurement, the amount of fluorescent molecules released from an ADC mimic was measured using a liquid chromatography/fluorescence detection method. The three samples to which acetonitrile was immediately added at 0° C. in Example 7-1 were taken as 0 hour samples, and the three samples incubated at 37° C. for six hours as described in Example 7-1 were taken as 6 hour samples. A difference in fluorescence intensity between the 6 hour samples and the 0 hour samples was analyzed.
Separately, a correlation between the area of a fluorescence intensity area by HPLC and a concentration was calculated using Pyrene. The difference in fluorescence intensity between the ADC mimics was converted into a concentration using the calculation formula. When the concentration at 0 hour was set to 100%, a ratio of the above-described difference in fluorescence intensity was calculated as a releasing ratio.

[2] = Evaluation of hydrophobicity by hydrophobic column chromatography (HIC-HPLC); type: physicochemical; conditions: hydrophobicity measure, Tosoh Biobuthyl NPR column, UV 280 nm
Description: According to a previous report (Anal. Chem., 2019, 91, 20, 12724-12732, which is incorporated herein by reference in its entirety), HIC-HPLC analysis was performed. Measurement was performed using the following conditions. The hydrophobicity of an ADC can be evaluated by retention time of the ADC in HIC chromatogram.
Measurement system: Chromaster (registered trademark) (manufactured by Hitachi, Ltd.)
Column: Tosoh Biobuthyl NPR 2.5 μm 4.6×35 mm column manufactured by Tosoh Bio-Sciences Inc.
Gradient: linear gradient of eluent A/B
Eluent B: 25 mM Na2HPO4/NaH2PO4 (pH 6.0, 25 v/v % isopropanol added)

[3] = Test for stability of ADC mimic in mouse plasma (released fluorescent molecules); type: in vitro ADME; conditions: 0.1 mg/mL, 37° C., four days
Description: An ADC mimic was added to 500 μL of mouse plasma (manufactured by Charles River) so as to have a concentration of 0.1 mg/mL, and then the mixture was subjected to sterile filtration. 50 μL of this solution was poured into each of six Eppendorf tubes. Three of the six samples were stored in an incubator set at 37° C. for four days. The remaining three samples were stored in a freezer at −80° C. for four days similarly. To each of the samples, 100 μL of acetonitrile was added. The mixture was stirred by vortex, and then centrifuged to obtain a precipitate. The resulting supernatant solution was collected and subjected to HPLC analysis.
For the measurement, the amount of fluorescent molecules released from an ADC mimic was measured using a liquid chromatography/fluorescence detection method. The three samples stored in a freezer in Example 9-1 were taken as Day=0 samples, and the three samples stored at 37° C. in Example 9-1 were taken as Day=4 samples. A difference in fluorescence intensity between Day=4 samples and Day=0 samples was analyzed.
A releasing ratio of the fluorescent molecules was calculated according to Example 7-2.
Regarding the results, as illustrated in the following Table, a releasing ratio of the fluorescent molecules was evaluated.

SMILES	aggregation ratio [1]	Releasing ratio of fluorescent molecule for 6 hours (cathepsin B)	Retention time [2]	Releasing ratio of payload on Day 4 [3]
CNC(=O)CCSC1CC(=O)N(CCCCCC(=O)N[C@@H](CCC(=O)O)C(=O)N[C@H](C(=O)N[C@@H](CCCNC(N)=O)C(=O)Nc2ccc(COC(=O)N(C)CC(=O)NCc3cc4ccc5cccc6ccc(c3)c4c56)cc2)C(C)C)C1=O (stereo partly drawn) [ADC mimic 1]	3.0%	88%	12.8 min	8%
CNC(=O)CCSC1CC(=O)N(CCCCCC(=O)N(CC(=O)O)CC(=O)N[C@H](C(=O)N[C@@H](CCCNC(N)=O)C(=O)Nc2ccc(COC(=O)N(C)CC(=O)NCc3cc4ccc5cccc6ccc(c3)c4c56)cc2)C(C)C)C1=O (stereo partly drawn) [ADC mimic 3]	2.9%	100%	12.7 min	9%
CNC(=O)CCSC1CC(=O)N(CCCCCC(=O)N[C@@H](C(=O)N[C@H](CCCNC(N)=O)C(=O)Nc2ccc(COC(=O)N(C)CC(=O)NCc3cc4ccc5cccc6ccc(c3)c4c56)cc2)C(C)C)C1=O (stereo partly drawn) [ADC mimic 4, reference compound]	6.2%	53%	13.1 min	38%
